B1: Zinc finger protein Aiolos (Homo sapiens), Q9UKT9 (parent)
chain: MEDIQTNAELKSTQEQSVPAESAAVLNDYSLTKSHEMENVDSGEGPANEDEDIGDDSMKVKDEYSERDENVLKSEPMGNAEEPEIPYSYSREYNEYENIKLERHVVSFDSSRPTSGKMNCDVCGLSCISFNVLMVHKRSHTGERPFQCNQCGASFTQKGNLLRHIKLHTGEKPFKCHLCNYACQRRDALTGHLRTHSVEKPYKCEFCGRSYKQRSSLEEHKERCRTFLQSTDPGDTASAEARHIKAEMGSERALVLDRLASNVAKRKSSMPQKFIGEKRHCFDVNYNSSYMYEKESELIQTRMMDQAINNAISYLGAEALRPLVQTPPAPTSEMVPVISSMYPIALTRAEMSNGAPQELEKKSIHLPEKSVPSERGLSPNNSGHDSTDTDSNHEERQNHIYQQNHMVLSRARNGMPLLKEVPRSYELLKPPPICPRDSVKVINKEGEVMDVYRCDHCRVLFLDYVMFTIHMGCHGFRDPFECNMCGYRSHDRYEFSSHIARGEHRALLK
partner: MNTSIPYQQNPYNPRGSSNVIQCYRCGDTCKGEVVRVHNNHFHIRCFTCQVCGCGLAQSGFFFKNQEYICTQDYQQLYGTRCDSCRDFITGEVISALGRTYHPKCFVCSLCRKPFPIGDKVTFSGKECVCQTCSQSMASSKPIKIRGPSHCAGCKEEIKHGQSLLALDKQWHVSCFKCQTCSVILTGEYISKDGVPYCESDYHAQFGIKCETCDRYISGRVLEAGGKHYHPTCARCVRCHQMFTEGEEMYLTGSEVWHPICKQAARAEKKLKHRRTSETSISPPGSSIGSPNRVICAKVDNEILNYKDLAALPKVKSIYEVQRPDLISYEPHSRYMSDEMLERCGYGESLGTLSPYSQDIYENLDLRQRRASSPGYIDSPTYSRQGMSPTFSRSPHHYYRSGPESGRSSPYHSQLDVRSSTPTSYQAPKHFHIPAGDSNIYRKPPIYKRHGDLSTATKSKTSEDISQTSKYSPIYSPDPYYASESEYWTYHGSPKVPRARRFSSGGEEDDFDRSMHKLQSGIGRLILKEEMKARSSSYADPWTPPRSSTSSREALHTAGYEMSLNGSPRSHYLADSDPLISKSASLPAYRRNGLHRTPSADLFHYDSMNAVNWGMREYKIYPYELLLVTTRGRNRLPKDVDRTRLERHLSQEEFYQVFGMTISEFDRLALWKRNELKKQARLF
B2: pre-mRNA splicing regulator USH1G (Homo sapiens), Q495M9 (parent)
chain: MNDQYHRAARDGYLELLKEATRKELNAPDEDGMTPTLWAAYHGNLESLRLIVSRGGDPDKCDIWGNTPLHLAASNGHLHCLSFLVSFGANIWCLDNDYHTPLDMAAMKGHMECVRYLDSIAAKQSSLNPKLVGKLKDKAFREAERRIRECAKLQRRHHERMERRYRRELAERSDTLSFSSLTSSTLSRRLQHLALGSHLPYSQATLHGTARGKTKMQKKLERRKQGGEGTFKVSEDGRKSARSLSGLQLGSDVMFVRQGTYANPKEWGRAPLRDMFLSDEDSVSRATLAAEPAHSEVSTDSGHDSLFTRPGLGTMVFRRNYLSSGLHGLGREDGGLDGVGAPRGRLQSSPSLDDDSLGSANSLQDRSCGEELPWDELDLGLDEDLEPETSPLETFLASLHMEDFAALLRQEKIDLEALMLCSDLDLRSISVPLGPRKKILGAVRRRRQAMERPPALEDTEL
partner: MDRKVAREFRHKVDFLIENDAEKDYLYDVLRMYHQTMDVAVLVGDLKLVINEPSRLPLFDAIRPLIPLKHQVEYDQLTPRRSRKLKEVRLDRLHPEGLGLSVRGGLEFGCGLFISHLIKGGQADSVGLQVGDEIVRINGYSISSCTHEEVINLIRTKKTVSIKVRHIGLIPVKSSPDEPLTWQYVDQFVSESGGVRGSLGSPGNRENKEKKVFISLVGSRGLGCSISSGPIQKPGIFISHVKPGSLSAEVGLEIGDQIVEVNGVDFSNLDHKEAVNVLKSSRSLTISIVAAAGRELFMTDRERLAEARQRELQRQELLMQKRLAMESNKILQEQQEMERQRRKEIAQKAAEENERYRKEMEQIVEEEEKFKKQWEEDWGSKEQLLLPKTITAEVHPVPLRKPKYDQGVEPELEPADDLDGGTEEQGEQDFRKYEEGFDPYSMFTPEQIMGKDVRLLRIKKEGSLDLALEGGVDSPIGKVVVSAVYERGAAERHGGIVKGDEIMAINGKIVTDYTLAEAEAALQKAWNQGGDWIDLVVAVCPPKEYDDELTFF
B3: Transmembrane protein 187 (Homo sapiens), Q14656 (parent)
chain: MNPEWGQAFVHVAVAGGLCAVAVFTGIFDSVSVQVGYEHYAEAPVAGLPAFLAMPFNSLVNMAYTLLGLSWLHRGGAMGLGPRYLKDVFAAMALLYGPVQWLRLWTQWRRAAVLDQWLTLPIFAWPVAWCLYLDRGWRPWLFLSLECVSLASYGLALLHPQGFEVALGAHVVAAVGQALRTHRHYGSTTSATYLALGVLSCLGFVVLKLCDHQLARWRLFQCLTGHFWSKVCDVLQFHFAFLFLTHFNTHPRFHPSGGKTR
partner: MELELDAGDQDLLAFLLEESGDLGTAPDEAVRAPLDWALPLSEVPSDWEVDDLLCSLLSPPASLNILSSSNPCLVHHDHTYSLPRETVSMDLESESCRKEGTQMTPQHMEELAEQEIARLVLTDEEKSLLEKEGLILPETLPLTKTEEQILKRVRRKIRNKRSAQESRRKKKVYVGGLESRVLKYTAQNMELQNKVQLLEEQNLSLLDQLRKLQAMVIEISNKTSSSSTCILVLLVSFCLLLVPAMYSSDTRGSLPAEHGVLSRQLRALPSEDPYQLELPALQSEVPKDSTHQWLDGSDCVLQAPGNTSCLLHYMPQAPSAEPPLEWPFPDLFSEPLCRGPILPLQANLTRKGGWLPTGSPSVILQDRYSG
B4: NADPH oxidase activator 1 (Homo sapiens), Q86UR1 (parent)
chain: MASLGDLVRAWHLGAQAVDRGDWARALHLFSGVPAPPARLCFNAGCVHLLAGDPEAALRAFDQAVTKDTCMAVGFFQRGVANFQLARFQEALSDFWLALEQLRGHAAIDYTQLGLRFKLQAWEVLHNVASAQCQLGLWTEAASSLREAMSKWPEGSLNGLDSALDQVQRRGSLPPRQVPRGEVFRPHRWHLKHLEPVDFLGKAKVVASAIPDDQGWGVRPQQPQGPGANHDARSLIMDSPRAGTHQGPLDAETEVGADRCTSTAYQEQRPQVEQVGKQAPLSPGLPAMGGPGPGPCEDPAGAGGAGAGGSEPLVTVTVQCAFTVALRARRGADLSSLRALLGQALPHQAQLGQLSYLAPGEDGHWVPIPEEESLQRAWQDAAACPRGLQLQCRGAGGRPVLYQVVAQHSYSAQGPEDLGFRQGDTVDVLCEVDQAWLEGHCDGRIGIFPKCFVVPAGPRMSGAPGRLPRSQQGDQP
B5: Synaptonemal complex central element protein 3 (Homo sapiens), A1L190 (parent)
chain: MDDADPEERNYDNMLKMLSDLNKDLEKLLEEMEKISVQATWMAYDMVVMRTNPTLAESMRRLEDAFVNCKEEMEKNWQELLHETKQRL
partner: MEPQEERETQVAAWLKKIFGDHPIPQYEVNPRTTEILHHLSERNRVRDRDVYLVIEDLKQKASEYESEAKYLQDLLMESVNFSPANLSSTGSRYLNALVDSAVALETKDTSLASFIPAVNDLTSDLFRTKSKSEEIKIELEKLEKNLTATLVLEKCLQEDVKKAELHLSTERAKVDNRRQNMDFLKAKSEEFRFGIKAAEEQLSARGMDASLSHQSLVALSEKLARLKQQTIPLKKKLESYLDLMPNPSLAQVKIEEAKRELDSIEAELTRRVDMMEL
B6: Oxidative stress-induced growth inhibitor 1 (Homo sapiens), Q9UJX0 (parent)
chain: MSSSRKDHLGASSSEPLPVIIVGNGPSGICLSYLLSGYTPYTKPDAIHPHPLLQRKLTEAPGVSILDQDLDYLSEGLEGRSQSPVALLFDALLRPDTDFGGNMKSVLTWKHRKEHAIPHVVLGRNLPGGAWHSIEGSMVILSQGQWMGLPDLEVKDWMQKKRRGLRNSRATAGDIAHYYRDYVVKKGLGHNFVSGAVVTAVEWGTPDPSSCGAQDSSPLFQVSGFLTRNQAQQPFSLWARNVVLATGTFDSPARLGIPGEALPFIHHELSALEAATRVGAVTPASDPVLIIGAGLSAADAVLYARHYNIPVIHAFRRAVDDPGLVFNQLPKMLYPEYHKVHQMMREQSILSPSPYEGYRSLPRHQLLCFKEDCQAVFQDLEGVEKVFGVSLVLVLIGSHPDLSFLPGAGADFAVDPDQPLSAKRNPIDVDPFTYQSTRQEGLYAMGPLAGDNFVRFVQGGALAVASSLLRKETRKPP
partner: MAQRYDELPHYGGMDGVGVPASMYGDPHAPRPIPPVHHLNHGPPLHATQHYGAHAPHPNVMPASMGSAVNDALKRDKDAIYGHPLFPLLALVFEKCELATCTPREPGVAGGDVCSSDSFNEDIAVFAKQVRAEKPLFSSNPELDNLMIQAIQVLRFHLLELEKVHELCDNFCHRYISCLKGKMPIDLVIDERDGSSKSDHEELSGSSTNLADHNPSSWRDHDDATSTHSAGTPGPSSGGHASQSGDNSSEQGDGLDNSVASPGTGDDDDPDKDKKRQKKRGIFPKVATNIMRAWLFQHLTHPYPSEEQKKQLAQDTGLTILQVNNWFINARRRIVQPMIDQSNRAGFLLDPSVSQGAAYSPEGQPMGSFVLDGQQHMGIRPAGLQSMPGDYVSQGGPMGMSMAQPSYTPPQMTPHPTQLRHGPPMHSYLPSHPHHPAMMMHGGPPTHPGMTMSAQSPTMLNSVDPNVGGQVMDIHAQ

Variants of: B1
Conditions: with ablm3_human ABLIM3, O94929

effect of a mutation on the interaction	Variant
with no effect	N119D

Variants of: B2
Conditions: with ush1c_human USH1C

effect of a mutation on the interaction	Variant
with no effect	L16V
with no effect	L420V
with no effect	E393D
with no effect	L48P

Variants of: B3
Conditions: with creb3_human CREB3, O43889

effect of a mutation on the interaction	Variant
with no effect	R138Q

Variants of: B4
Conditions: with rim3a_human RIMBP3, Q9UFD9
Sequence of rim3a_human RIMBP3, Q9UFD9 (Q9UFD9 whole entry): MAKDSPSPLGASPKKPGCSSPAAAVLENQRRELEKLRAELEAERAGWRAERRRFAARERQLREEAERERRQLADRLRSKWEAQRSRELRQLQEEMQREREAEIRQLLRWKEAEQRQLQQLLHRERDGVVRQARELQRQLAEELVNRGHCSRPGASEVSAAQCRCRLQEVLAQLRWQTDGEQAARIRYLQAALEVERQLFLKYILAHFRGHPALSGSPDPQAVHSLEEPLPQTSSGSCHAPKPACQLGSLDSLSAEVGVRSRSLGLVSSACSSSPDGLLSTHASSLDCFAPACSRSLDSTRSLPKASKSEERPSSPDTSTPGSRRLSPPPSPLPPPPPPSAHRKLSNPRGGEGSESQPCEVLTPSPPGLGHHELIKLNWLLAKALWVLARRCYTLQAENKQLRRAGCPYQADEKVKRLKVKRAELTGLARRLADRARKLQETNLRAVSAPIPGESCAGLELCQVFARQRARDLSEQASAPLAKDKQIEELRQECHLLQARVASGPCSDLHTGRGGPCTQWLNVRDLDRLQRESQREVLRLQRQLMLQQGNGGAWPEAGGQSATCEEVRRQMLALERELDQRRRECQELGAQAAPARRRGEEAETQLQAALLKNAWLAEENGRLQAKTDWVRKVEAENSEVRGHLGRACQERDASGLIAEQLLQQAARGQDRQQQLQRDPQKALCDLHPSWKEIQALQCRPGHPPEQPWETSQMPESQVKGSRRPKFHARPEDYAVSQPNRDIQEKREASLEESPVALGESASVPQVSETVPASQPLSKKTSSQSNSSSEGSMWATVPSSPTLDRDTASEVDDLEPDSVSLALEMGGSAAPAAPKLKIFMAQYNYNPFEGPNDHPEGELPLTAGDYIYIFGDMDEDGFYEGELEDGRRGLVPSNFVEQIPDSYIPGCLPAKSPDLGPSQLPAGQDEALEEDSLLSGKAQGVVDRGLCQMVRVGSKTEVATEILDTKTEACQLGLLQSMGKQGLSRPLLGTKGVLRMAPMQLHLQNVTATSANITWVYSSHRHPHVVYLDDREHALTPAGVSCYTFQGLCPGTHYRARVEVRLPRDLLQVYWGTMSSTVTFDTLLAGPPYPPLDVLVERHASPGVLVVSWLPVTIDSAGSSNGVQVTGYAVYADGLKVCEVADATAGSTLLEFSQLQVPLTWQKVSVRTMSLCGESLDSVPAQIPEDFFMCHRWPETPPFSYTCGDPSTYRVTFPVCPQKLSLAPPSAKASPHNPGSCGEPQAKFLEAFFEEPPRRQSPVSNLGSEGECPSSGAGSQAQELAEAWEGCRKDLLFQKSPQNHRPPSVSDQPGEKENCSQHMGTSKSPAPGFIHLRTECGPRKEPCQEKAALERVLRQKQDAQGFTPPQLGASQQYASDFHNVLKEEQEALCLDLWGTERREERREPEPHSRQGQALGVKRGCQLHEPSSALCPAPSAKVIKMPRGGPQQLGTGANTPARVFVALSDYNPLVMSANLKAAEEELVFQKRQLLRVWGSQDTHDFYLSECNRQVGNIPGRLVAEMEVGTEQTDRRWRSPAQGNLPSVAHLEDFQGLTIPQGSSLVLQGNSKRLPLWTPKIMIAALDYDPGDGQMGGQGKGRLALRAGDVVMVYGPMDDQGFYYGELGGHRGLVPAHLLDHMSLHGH

effect of a mutation on the interaction	Variant
with no effect	D6E

Variants of: B5
Conditions: with haus1_human HAUS1, Q96CS2

effect of a mutation on the interaction	Variant
with no effect	A65G
with no effect	R50C

Variants of: B6
Conditions: with meis2_human MEIS2, O14770

effect of a mutation on the interaction	Variant
with no effect	D320N
with no effect	S236L
